Values quoted from earlier work as cited in PMC8242001.

Molecular target: eIF4E (Saccharomyces cerevisiae) (UniProt P07260)
Experiment: ITC

UniProt P07260, sequence (P07260 whole entry): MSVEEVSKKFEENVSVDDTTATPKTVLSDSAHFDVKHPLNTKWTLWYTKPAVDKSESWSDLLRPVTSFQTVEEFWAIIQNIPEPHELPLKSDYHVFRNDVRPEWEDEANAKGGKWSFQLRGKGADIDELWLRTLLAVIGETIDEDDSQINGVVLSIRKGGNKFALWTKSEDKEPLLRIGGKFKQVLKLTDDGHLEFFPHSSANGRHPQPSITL

Kd: 0.02 µM
Substance: Caf20 (from UniProt P12962)
